Key:
[1] = test system: Human Promyelocytic Leukemia NB4 Cells; experiment: Killing effect of rLZ-8 on NB4 cells (MTT, OD570nm); format: cell-based; conditions: As2O3 10 μg ml^−1, 48 h
Method: After filtration and degerming, we prepared 8 concentrations using IMDM culture medium which are respectively 0.78 μg·ml^−1, 1.56 μg·ml^−1, 3.125 μg·ml^−1, 6.25 μg·ml^−1, 12.5 μg·ml^−1, 25 μg·ml^−1, 50 μg·ml^−1, 100 μg·ml^−1.
On 96-orifice culture medium plate, the pilot orifice plus NB4 tumor cells 0.1 ml and rLZ-8 0.1 ml, rLZ-8 concentrates from low to high; negative control group plus NB4 tumor cells and culture medium of 0.1 ml respectively; positive drug control group arsenic trioxide As2O3; make six-aperture multipunches for each group. Placing in 37° C., 5% CO2 incubator 48 h, adding MTT15 μl (5 mg ml^−1) prior to the termination of 4 h, after the termination of cell culture by adding 100 μl 0.1 mol L^−1 hydrochloric acid isopropyl alcohol, testing on the enzyme-linked immunosorbent OD570nm values.

[2] = test system: Human Chronic Myelogenous Leukemia K562 Cells; experiment: Lethal effect of rLZ-8 on K562 cells (MTT, OD570nm); format: cell-based; conditions: As2O3 10 μg ml^−1, 48 h
Method: After sterilization of rLZ-8, we prepared 6 concentrations using IMDM culture medium, which are respectively 3.125 μg·ml^−1, 6.25 μb·ml^−1, 12.5 μg·ml^−, 25 μg·ml^−1, 50 μg·ml^−1, 100 μg·ml^−1.
On 96-orifice culture plate, the pilot aperture plus K562 tumor cells 0.1 ml and rLZ-8 0.1 ml, rLZ-8 concentrations from low to high; negative control group plus K562 tumor cells and culture medium of the 0.1 ml respectively; positive drug control group arsenic trioxide As2O3; make six-aperture multipunches for each group. Placing in 37° C., 5% CO2 incubator 48 h, adding MTT15 μl (5 mg ml^−1) prior to the termination of 4 h, after the termination of cell culture by adding 100 μl 0.1 mol L^−1 hydrochloric acid isopropyl alcohol, testing OD values570nm on the enzyme immunosorbent detector.

[3] = test system: NB4; experiment: Annexin V-FITC flow cytometry, apoptosis of NB4; format: cell-based; conditions: NB4, As2O3 0.5 μg·ml^−1, 24 h, Annexin V/PI
Method: (§1) FACS Calibur flow cytometry, U.S. Becton-Dickinson.Coompany. NB4, HL-60. rLZ-8 is prepared with IMDM culture medium containing 2% FCS into the preparation of 0.1 μg·ml^−1, 0.5 μg·ml^−1, 2.5 μg·ml^−1, arsenic trioxide (As2O3) 0.5 μg·ml^−1 AnnexinV-FITC kit: combining buffer solution 4×; Propidium iodide solution (PI), 20 μg·ml−1, 0.2 ml; recombinant human Annexin V/FITC, 0.1 ml.
(§2) Establish NB4 normal control group, positive drug group (As2O3 0.5 μg·ml^−1), protein low-dose group (0.1 μg·ml^−1), medium-dose group (0.5 μg·ml^−1), high-dose group, (2.5 μg·ml^−1); establish HL-60 normal control group, protein low-dose group (0.1 μg·ml^−1), medium-dose group (0.5 μg·ml^−1), high-dose group, (2.5 μg·ml^−1).
(§3) Mix NB4 and HL-60 cell into 24-orifice plate respectively, 1 ml/hole supply rLZ-8 in different concentrates, set 3-orifice multipunches for each group. Put them in 37° C., 5% CO2 incubator for 24 h, collect the cells of each concentrate, washes the cells twice with pre-cooled PBS 4° C., with 250 μl binding buffer solution re-suspending cells and regulates the cell density to 1×10^6/ml, taking out 100 μl to 5 ml streaming tube, and add 5 μl Annexin V/FITC and 10 μl 20 μg·ml^−1 PI solution, after mixing put it in room temperature and lucifuged hatching 15 min, add 400 μl PBS by flow cytometry analysis.

[4] = test system: HL-60; experiment: Annexin V-FITC flow cytometry, apoptosis of HL-60; format: cell-based; conditions: HL-60, positive drug group, 24 h, Annexin V/PI
Method: as §1, §2, §3

[5] = test system: WBC; experiment: Cyclophosphamide low-leucocyte mice model, WBC; format: in vivo; parameters: unit not given here; conditions: Genlei Scimax 3.2 μg·kg−1
Method: rLZ-8 preparation of sterile saline. Divide them into 5 μg·kg^−1, 2.5 μg√kg^−1, 1.25 μg·kg^−1, 0.62 μg·kg^−1 dose groups.
Genlei™ Scimax™ [Recombinant human granulocyte colony-stimulating factor injection (rhG-CSF)], production lot: 20060403; 75 μg/vial is prepared with sterile normal saline into the preparation of 3.2 μg·kg^−1, 0.2 ml/vial.
Cyclophosphamide (CP) for injection (the production lot number 050216; 200 mg/vial) is prepared with sterile normal saline into the preparation of 12.5 mg·kg^−1, 0.2 ml/vial.
Normal control group, several protein dose groups, positive control group (Genlei™ Scimax™).
(§4) Excluding the normal control group (given same normal saline), each group of mice were given tail vein injection of cyclophosphamide, 1.25 μg·kg^−1, 0.2 ml/vial, for 3 consecutive days. On 3rd day, rat tail venous blood sampling, sent to Jilin University First Hospital laboratory, cell analyze the number of WBC. After successful modeling, they were given to the above groups respective dose of rLZ-8 and positive drugs (Genlei™ Scimax™) treatment, the normal control group and CP groups were given same normal saline, on the 3rd, 7th and 14th day of the treatment to draw venous blood from mice tail respectively, sent to Jilin University First Hospital testing the numbers of WBC. Compare WBC changes before and after the treatment for analysis of drug efficacy.

[6] = test system: WBC; experiment: Cyclophosphamide low-leucocyte rat model, WBC; format: in vivo, rats; parameters: unit not given here; conditions: Genlei Scimax 9.45 μg·kg−1
Method: rLZ-8 preparation of sterile saline. Divide them into 20 μg·kg^−1, 10 μg·kg^−1, 5 μg·kg^−1, 2.5 μg·kg^−1, 1.25 μg·kg^−1, 0.625 μg·kg^−1, 0.31 μg·kg^−1 dose groups.
Genlei™ Scimax™ [Recombinant human granulocyte colony-stimulating factor injection (rhG-CSF)], production lot: 20060403; 75 μg/vial is prepared with sterile normal saline into the preparation of 9.45 μg·ml^−1, 0.1 ml/vial.
Cyclophosphamide (CP), the production lot number 050216; 200 mg/vial is prepared with sterile normal saline into the preparation of 20 mg·ml^−1, 0.1 ml/vial, namely, 49 mg·kg^−1.
Normal control group, protein low-dose group, protein medium-dose group, protein high-dose group, positive control group (Genlei™ Scimax™)
as §4, with “rats” for “mice”, “20 mg·ml^−1, 0.1” for “1.25 μg·kg^−1, 0.2”

[7] = test system: WBC; experiment: Prevention of radiation leucopenia model of mice, WBC; format: in vivo; parameters: unit not given here; conditions: Genlei Scimax 3.2 μg
Method: rLZ-8 preparation of sterile saline. Divide them into 5 μg·kg^−1, 2.5 μg·kg^−1, 1.25 μg·kg^−1, 0.62 μg·kg^−1 dose groups. 0.2 ml/vial.
Genlei™ Scimax™ [Recombinant human granulocyte colony-stimulating factor injection (rhG-CSF)], production lot: 20060403; 150 μg/vial is prepared with sterile normal saline into the preparation of 3.2 μg·kg^−1, 0.2 ml/vial.
(§5) The mice were irradiated by 7.5 Gy γ-ray (180 mV, 15 mA) and then divided into seven groups (n=10): (A) negative control; (B) 5 μg·kg−1 dose; (C) 2.5 μg·kg−1 dose; (D) 1.25 μg·kg−1 dose; (E) 0.62 μg·kg−1 dose; (F) positive control (Genlei™ Scimax™); (G) model group. Before modeling 5 days, mice in each group were administered with Genlei™ Scimax™ and rLZ-8 for 5 days, on the 5th day, mice were radiated, for 5 days, and on the 7th day, drew blood from tail, tested the number of WBC, weight spleen, calculated index of spleen.

[8] = test system: WBC; experiment: Treatment of radiation leucopenia model of mice, WBC; format: in vivo; parameters: unit not given here; conditions: Genlei Scimax 3.2 μg·kg^−1; 7.5 Gy γ-ray
Method: (§6) rLZ-8 preparation of sterile saline. Divide them into 5 ∞g·kg^−1, 2.5 μg·kg^−1, 1.25 μg·kg^−1, 0.62 μg·kg^−1 dose groups. 0.2 ml/vial.
(§7) Genlei™ Scimax™ [Recombinant human granulocyte colony-stimulating factor injection (rhG-CSF)], production lot: 20060403; 150m/vial is prepared with sterile normal saline into the preparation of 3.2 μg·kg^−1, 0.2 ml/vial.
as §5, with “group. Together with modeling,” for “group. Before modeling 5 days,”, “for 9” for “for 5”, “days,” for “days, on the 5th day, mice were radiated, for 5 days, and on the 7th day,”

[9] = test system: spleen; experiment: Colony forming unit-spleen and spleen index in radiation model of mice; format: in vivo; conditions: Genlei Scimax 3.2 μg·kg^−1
Method: as §6, §7
as §5, with “group. Together with modeling,” for “group. Before modeling 5 days,”, “for 9” for “for 5”, “days,” for “days, on the 5th day, mice were radiated, for 5 days, and on the 7th day,”

arsenic trioxide [As2O3, reference compound]
Growth inhibition rate (%) [1]: 72%
OD570 nm [1]: 0.33 ± 0.01
Growth inhibition rate (%) [2]: 78.2%
OD570 nm [2]: 0.22 ± 0.03
Apoptosis rate [3]: 23.4%
Apoptosis rate [4]: 39.7%

B1: Genlei ™ Scimax ™: Recombinant human granulocyte colony-stimulating factor injection (rhG-CSF) (protein, UniProt P09919 31-207, looked up)
Granulocyte …: TPLGPASSLPQSFLLKCLEQVRKIQGDGAALQEKLVSECATYKLCHPEELVLLGHSLGIPWAPLSSCPSQALQLAGCLSQLHSGLFLYQGLLQALEGISPELGPTLDTLQLDVADFATTIWQQMEELGMAPALQPTQGAMPAFASAFQRRAGGVLVASHLQSFLEVSYRVLRHLAQP
WBC, 3rdday of medication [5]: 5.5 ± 0.12
WBC, 7thday of medication [5]: 22.7 ± 0.12
WBC, 14thday of medication [5]: 13.0 ± 0.19
WBC, 3rdday of medication [6]: 1.4 ± 0.11
WBC, 7thday of medication [6]: 13.1 ± 0.21
WBC, 14thday of medication [6]: 10.3 ± 0.14
WBC, 5th day (rLZ-8) ([7]; 5th day of administration before radiation): 21.8 ± 0.35
WBC, 5th day ([7]; after 7.5 Gy γ-ray): 0.26 ± 0.20
WBC, 7th day ([7]; after 7.5 Gy γ-ray): 0.22 ± 0.12
WBC, 5th day [8]: 0.68 ± 0.35
WBC, 7th day [8]: 0.58 ± 0.35
WBC, 9th day [8]: 0.80 ± 0.11
colony forming unit-spleen number [9]: 6.0 ± 0.11
growth rate [9]: 26%
index (spleen) [9]: 0.20 ± 0.10
